# Data reported in the RNAGym collection of RNA variant scans (doi:10.1021/acssynbio.7b00057).
# B1: Pistol ribozyme (parent)
# chain: GGGUCGUUGUUCCAUAAUCGCGUGGAUAUGGCACGCAAGUUUCUACCGGGCACCGUAAAUGUCCGACUGGAGCCGUUCGGGCGGCUAUAAACAGACCUCAGGCCCGAAGCGUGGCGGCACCUGCCGCCGGUGGUAAAAAAGAUCGGAAGAGCACACGUCU
# Variants of: B1
# Assay: aptazyme ON/OFF ratio, guanine; higher = stronger switching; co-transcriptional cleavage with and without guanine
row,Variant,aptazyme ON/OFF ratio
1,GGGUCGUACUCCGAUAAUCGCGUGGAUAUGGCACGCAAGUUUCUACCGGGCACCGUAAAUGUCCGACUGGAGCCGUUCGGGCGGCUAUAAACAGACCUCAGGCCCGAAGCGUGGCGGCACCUGCCGCCGGUGGUAAAAAAGAUCGGAAGAGCACACGUCU,1.04
2,GGGUCGUACUCCUAUAAUCGCGUGGAUAUGGCACGCAAGUUUCUACCGGGCACCGUAAAUGUCCGACUGGAGCCGUUCGGGCGGCUAUAAACAGACCUCAGGCCCGAAGCGUGGCGGCACCUGCCGCCGGUGGUAAAAAAGAUCGGAAGAGCACACGUCU,1.06
3,GGGUCGUACUCCAAUAAUCGCGUGGAUAUGGCACGCAAGUUUCUACCGGGCACCGUAAAUGUCCGACUGGAGCCGUUCGGGCGGCUAUAAACAGACCUCAGGCCCGAAGCGUGGCGGCACCUGCCGCCGGUGGUAAAAAAGAUCGGAAGAGCACACGUCU,1.06
4,GGGUCGUACUGUAAUAAUCGCGUGGAUAUGGCACGCAAGUUUCUACCGGGCACCGUAAAUGUCCGACUGGAGCCGUUCGGGCGGCUAUAAACAGACCUCAGGCCCGAAGCGUGGCGGCACCUGCCGCCGGUGGUAAAAAAGAUCGGAAGAGCACACGUCU,1.31
5,GGGUCGUACUGUGAUAAUCGCGUGGAUAUGGCACGCAAGUUUCUACCGGGCACCGUAAAUGUCCGACUGGAGCCGUUCGGGCGGCUAUAAACAGACCUCAGGCCCGAAGCGUGGCGGCACCUGCCGCCGGUGGUAAAAAAGAUCGGAAGAGCACACGUCU,1.27
6,GGGUCGUACUGUUAUAAUCGCGUGGAUAUGGCACGCAAGUUUCUACCGGGCACCGUAAAUGUCCGACUGGAGCCGUUCGGGCGGCUAUAAACAGACCUCAGGCCCGAAGCGUGGCGGCACCUGCCGCCGGUGGUAAAAAAGAUCGGAAGAGCACACGUCU,1.08
7,GGGUCGUAUUUAGAUAAUCGCGUGGAUAUGGCACGCAAGUUUCUACCGGGCACCGUAAAUGUCCGACUGGAGCCGUUCGGGCGGCUAUAAACAGACCUCAGGCCCGAAGCGUGGCGGCACCUGCCGCCGGUGGUAAAAAAGAUCGGAAGAGCACACGUCU,1.16
8,GGGUCGUAUUUAAAUAAUCGCGUGGAUAUGGCACGCAAGUUUCUACCGGGCACCGUAAAUGUCCGACUGGAGCCGUUCGGGCGGCUAUAAACAGACCUCAGGCCCGAAGCGUGGCGGCACCUGCCGCCGGUGGUAAAAAAGAUCGGAAGAGCACACGUCU,1.52
9,GGGUCGUAUUUAUAUAAUCGCGUGGAUAUGGCACGCAAGUUUCUACCGGGCACCGUAAAUGUCCGACUGGAGCCGUUCGGGCGGCUAUAAACAGACCUCAGGCCCGAAGCGUGGCGGCACCUGCCGCCGGUGGUAAAAAAGAUCGGAAGAGCACACGUCU,1.15
10,GGGUCGUAUUUGUAUAAUCGCGUGGAUAUGGCACGCAAGUUUCUACCGGGCACCGUAAAUGUCCGACUGGAGCCGUUCGGGCGGCUAUAAACAGACCUCAGGCCCGAAGCGUGGCGGCACCUGCCGCCGGUGGUAAAAAAGAUCGGAAGAGCACACGUCU,1.26
11,GGGUCGUAUUUGAAUAAUCGCGUGGAUAUGGCACGCAAGUUUCUACCGGGCACCGUAAAUGUCCGACUGGAGCCGUUCGGGCGGCUAUAAACAGACCUCAGGCCCGAAGCGUGGCGGCACCUGCCGCCGGUGGUAAAAAAGAUCGGAAGAGCACACGUCU,1.21
12,GGGUCGUAUUUGGAUAAUCGCGUGGAUAUGGCACGCAAGUUUCUACCGGGCACCGUAAAUGUCCGACUGGAGCCGUUCGGGCGGCUAUAAACAGACCUCAGGCCCGAAGCGUGGCGGCACCUGCCGCCGGUGGUAAAAAAGAUCGGAAGAGCACACGUCU,1.23
13,GGGUCGUACUGCCAUAAUCGCGUGGAUAUGGCACGCAAGUUUCUACCGGGCACCGUAAAUGUCCGACUGGAGCCGUUCGGGCGGCUAUAAACAGACCUCAGGCCCGAAGCGUGGCGGCACCUGCCGCCGGUGGUAAAAAAGAUCGGAAGAGCACACGUCU,1.25
14,GGGUCGUAUUUUCAUAAUCGCGUGGAUAUGGCACGCAAGUUUCUACCGGGCACCGUAAAUGUCCGACUGGAGCCGUUCGGGCGGCUAUAAACAGACCUCAGGCCCGAAGCGUGGCGGCACCUGCCGCCGGUGGUAAAAAAGAUCGGAAGAGCACACGUCU,1.46
15,GGGUCGUAUUUGCAUAAUCGCGUGGAUAUGGCACGCAAGUUUCUACCGGGCACCGUAAAUGUCCGACUGGAGCCGUUCGGGCGGCUAUAAACAGACCUCAGGCCCGAAGCGUGGCGGCACCUGCCGCCGGUGGUAAAAAAGAUCGGAAGAGCACACGUCU,1.18
16,GGGUCGUAUUUACAUAAUCGCGUGGAUAUGGCACGCAAGUUUCUACCGGGCACCGUAAAUGUCCGACUGGAGCCGUUCGGGCGGCUAUAAACAGACCUCAGGCCCGAAGCGUGGCGGCACCUGCCGCCGGUGGUAAAAAAGAUCGGAAGAGCACACGUCU,1.22
17,GGGUCGUACUCGUAUAAUCGCGUGGAUAUGGCACGCAAGUUUCUACCGGGCACCGUAAAUGUCCGACUGGAGCCGUUCGGGCGGCUAUAAACAGACCUCAGGCCCGAAGCGUGGCGGCACCUGCCGCCGGUGGUAAAAAAGAUCGGAAGAGCACACGUCU,1.06
18,GGGUCGUACUCGGAUAAUCGCGUGGAUAUGGCACGCAAGUUUCUACCGGGCACCGUAAAUGUCCGACUGGAGCCGUUCGGGCGGCUAUAAACAGACCUCAGGCCCGAAGCGUGGCGGCACCUGCCGCCGGUGGUAAAAAAGAUCGGAAGAGCACACGUCU,1.05

row,Variant,aptazyme ON/OFF ratio
1,GGGUCGUACUGAAAUAAUCGCGUGGAUAUGGCACGCAAGUUUCUACCGGGCACCGUAAAUGUCCGACUGGAGCCGUUCGGGCGGCUAUAAACAGACCUCAGGCCCGAAGCGUGGCGGCACCUGCCGCCGGUGGUAAAAAAGAUCGGAAGAGCACACGUCU,1.1
2,GGGUCGUACUGAGAUAAUCGCGUGGAUAUGGCACGCAAGUUUCUACCGGGCACCGUAAAUGUCCGACUGGAGCCGUUCGGGCGGCUAUAAACAGACCUCAGGCCCGAAGCGUGGCGGCACCUGCCGCCGGUGGUAAAAAAGAUCGGAAGAGCACACGUCU,1.25
3,GGGUCGUACUGAUAUAAUCGCGUGGAUAUGGCACGCAAGUUUCUACCGGGCACCGUAAAUGUCCGACUGGAGCCGUUCGGGCGGCUAUAAACAGACCUCAGGCCCGAAGCGUGGCGGCACCUGCCGCCGGUGGUAAAAAAGAUCGGAAGAGCACACGUCU,1.2
4,GGGUCGUAUUUCCAUAAUCGCGUGGAUAUGGCACGCAAGUUUCUACCGGGCACCGUAAAUGUCCGACUGGAGCCGUUCGGGCGGCUAUAAACAGACCUCAGGCCCGAAGCGUGGCGGCACCUGCCGCCGGUGGUAAAAAAGAUCGGAAGAGCACACGUCU,2.15
5,GGGUCGUAUUUUAAUAAUCGCGUGGAUAUGGCACGCAAGUUUCUACCGGGCACCGUAAAUGUCCGACUGGAGCCGUUCGGGCGGCUAUAAACAGACCUCAGGCCCGAAGCGUGGCGGCACCUGCCGCCGGUGGUAAAAAAGAUCGGAAGAGCACACGUCU,1.36
6,GGGUCGUACUGCUAUAAUCGCGUGGAUAUGGCACGCAAGUUUCUACCGGGCACCGUAAAUGUCCGACUGGAGCCGUUCGGGCGGCUAUAAACAGACCUCAGGCCCGAAGCGUGGCGGCACCUGCCGCCGGUGGUAAAAAAGAUCGGAAGAGCACACGUCU,1.17
7,GGGUCGUACUGCAAUAAUCGCGUGGAUAUGGCACGCAAGUUUCUACCGGGCACCGUAAAUGUCCGACUGGAGCCGUUCGGGCGGCUAUAAACAGACCUCAGGCCCGAAGCGUGGCGGCACCUGCCGCCGGUGGUAAAAAAGAUCGGAAGAGCACACGUCU,1.15
8,GGGUCGUACUGCGAUAAUCGCGUGGAUAUGGCACGCAAGUUUCUACCGGGCACCGUAAAUGUCCGACUGGAGCCGUUCGGGCGGCUAUAAACAGACCUCAGGCCCGAAGCGUGGCGGCACCUGCCGCCGGUGGUAAAAAAGAUCGGAAGAGCACACGUCU,1.04
9,GGGUCGUACUGACAUAAUCGCGUGGAUAUGGCACGCAAGUUUCUACCGGGCACCGUAAAUGUCCGACUGGAGCCGUUCGGGCGGCUAUAAACAGACCUCAGGCCCGAAGCGUGGCGGCACCUGCCGCCGGUGGUAAAAAAGAUCGGAAGAGCACACGUCU,1.06
10,GGGUCGUACUGGCAUAAUCGCGUGGAUAUGGCACGCAAGUUUCUACCGGGCACCGUAAAUGUCCGACUGGAGCCGUUCGGGCGGCUAUAAACAGACCUCAGGCCCGAAGCGUGGCGGCACCUGCCGCCGGUGGUAAAAAAGAUCGGAAGAGCACACGUCU,1.16
11,GGGUCGUACUGUCAUAAUCGCGUGGAUAUGGCACGCAAGUUUCUACCGGGCACCGUAAAUGUCCGACUGGAGCCGUUCGGGCGGCUAUAAACAGACCUCAGGCCCGAAGCGUGGCGGCACCUGCCGCCGGUGGUAAAAAAGAUCGGAAGAGCACACGUCU,1.45
12,GGGUCGUACUCUAAUAAUCGCGUGGAUAUGGCACGCAAGUUUCUACCGGGCACCGUAAAUGUCCGACUGGAGCCGUUCGGGCGGCUAUAAACAGACCUCAGGCCCGAAGCGUGGCGGCACCUGCCGCCGGUGGUAAAAAAGAUCGGAAGAGCACACGUCU,1.05
13,GGGUCGUACUCUGAUAAUCGCGUGGAUAUGGCACGCAAGUUUCUACCGGGCACCGUAAAUGUCCGACUGGAGCCGUUCGGGCGGCUAUAAACAGACCUCAGGCCCGAAGCGUGGCGGCACCUGCCGCCGGUGGUAAAAAAGAUCGGAAGAGCACACGUCU,1.04
14,GGGUCGUACUCUUAUAAUCGCGUGGAUAUGGCACGCAAGUUUCUACCGGGCACCGUAAAUGUCCGACUGGAGCCGUUCGGGCGGCUAUAAACAGACCUCAGGCCCGAAGCGUGGCGGCACCUGCCGCCGGUGGUAAAAAAGAUCGGAAGAGCACACGUCU,1.01
15,GGGUCGUACUCUCAUAAUCGCGUGGAUAUGGCACGCAAGUUUCUACCGGGCACCGUAAAUGUCCGACUGGAGCCGUUCGGGCGGCUAUAAACAGACCUCAGGCCCGAAGCGUGGCGGCACCUGCCGCCGGUGGUAAAAAAGAUCGGAAGAGCACACGUCU,1.09
16,GGGUCGUACUGGUAUAAUCGCGUGGAUAUGGCACGCAAGUUUCUACCGGGCACCGUAAAUGUCCGACUGGAGCCGUUCGGGCGGCUAUAAACAGACCUCAGGCCCGAAGCGUGGCGGCACCUGCCGCCGGUGGUAAAAAAGAUCGGAAGAGCACACGUCU,1.07
17,GGGUCGUACUGGAAUAAUCGCGUGGAUAUGGCACGCAAGUUUCUACCGGGCACCGUAAAUGUCCGACUGGAGCCGUUCGGGCGGCUAUAAACAGACCUCAGGCCCGAAGCGUGGCGGCACCUGCCGCCGGUGGUAAAAAAGAUCGGAAGAGCACACGUCU,1.18
18,GGGUCGUACUGGGAUAAUCGCGUGGAUAUGGCACGCAAGUUUCUACCGGGCACCGUAAAUGUCCGACUGGAGCCGUUCGGGCGGCUAUAAACAGACCUCAGGCCCGAAGCGUGGCGGCACCUGCCGCCGGUGGUAAAAAAGAUCGGAAGAGCACACGUCU,1.14
